# Assay results taken from US20190119357A1 (MODERNATX, published 2019).
# Target: T1, MDM2 (UniProt Q00987 1-491, limits assumed)
# T1 construct: Endogenous MDM2 of HCT116 cells
# Experiment: anti-V5 immunoprecipitation from transfected HCT116 cell lysates, blot probed with anti-MDM2
# T1 sequence (Q00987 whole entry): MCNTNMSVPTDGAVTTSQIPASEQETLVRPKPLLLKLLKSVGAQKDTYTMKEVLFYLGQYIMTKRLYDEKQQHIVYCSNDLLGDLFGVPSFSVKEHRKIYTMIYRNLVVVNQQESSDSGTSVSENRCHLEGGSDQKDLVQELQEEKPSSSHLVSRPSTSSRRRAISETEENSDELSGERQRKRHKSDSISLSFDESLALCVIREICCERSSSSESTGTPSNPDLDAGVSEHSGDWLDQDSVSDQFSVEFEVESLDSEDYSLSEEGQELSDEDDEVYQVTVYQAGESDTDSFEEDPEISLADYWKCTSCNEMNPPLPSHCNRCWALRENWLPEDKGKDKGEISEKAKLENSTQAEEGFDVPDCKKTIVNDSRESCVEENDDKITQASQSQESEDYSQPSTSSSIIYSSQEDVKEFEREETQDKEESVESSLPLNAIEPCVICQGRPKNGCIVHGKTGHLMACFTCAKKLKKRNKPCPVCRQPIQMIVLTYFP
row,binding result,Binder
1,binds,"SQT(MDM2)(nt).P6W.cV5 (designed binder, also called P6W peptide in N-terminus of SQT; SQT-MDM2 construct 7) MIPRLTFEHWWAQLTSGLSEAKPATPEIQEIVDKVKPQLEEKTNETYGKLEAVQYKTQVLASTNYYIKVRAGDNKYMHLKVFNGPPGQNADRVLTGYQVDKNKDDELTGFGKPIPNPLLGLDST"
2,binds,"SQT(MDM2)(nt).pDIQ.cV5 (designed binder, also called pDIQ peptide in N-terminus of SQT; SQT-MDM2 construct 3) MIPRETFEHWWSQLLSGLSEAKPATPEIQEIVDKVKPQLEEKTNETYGKLEAVQYKTQVLASTNYYIKVRAGDNKYMHLKVFNGPPGQNADRVLTGYQVDKNKDDELTGFGKPIPNPLLGLDST"
3,binds,"SQT(MDM2)(L2).P1E6W.cV5 (designed binder, also called P1E6W peptide in Loop 2 of SQT; SQT-MDM2 construct 6) MIPRGLSEAKPATPEIQEIVDKVKPQLEEKTNETYGKLEAVQYKTQVLASTNYYIKVRAGDNKYMHLKVFNGPETFEHWWAQLTSPGQNADRVLTGYQVDKNKDDELTGFGKPIPNPLLGLDST"

# The next lines start with the binder.
row,Binder,binding result
1,"SQT(MDM2)(nt).pMI.cV5 (designed binder, also called pMI peptide in N-terminus of SQT; SQT-MDM2 construct 4) MIPRTSFAEYWNLLSPGLSEAKPATPEIQEIVDKVKPQLEEKTNETYGKLEAVQYKTQVLASTNYYIKVRAGDNKYMHLKVFNGPPGQNADRVLTGYQVDKNKDDELTGFGKPIPNPLLGLDST",binds
2,"SQT(MDM2)(nt).P7041.cV5 (designed binder, also called P7041 peptide in N-terminus of SQT; SQT-MDM2 construct 2) MIPRLTFEEYWAQLLSAAGLSEAKPATPEIQEIVDKVKPQLEEKTNETYGKLEAVQYKTQVLASTNYYIKVRAGDNKYMHLKVFNGPPGQNADRVLTGYQVDKNKDDELTGFGKPIPNPLLGLDST",binds
3,"SQT(MDM2)(L2).P3848.cV5 (designed binder, also called P3848 peptide in Loop 2 of SQT; SQT-MDM2 construct 5) MIPRGLSEAKPATPEIQEIVDKVKPQLEEKTNETYGKLEAVQYKTQVLASTNYYIKVRAGDNKYMHLKVFNGPLTFEHYWAQLTSPGQNADRVLTGYQVDKNKDDELTGFGKPIPNPLLGLDST",binds
